Key:
[1] = biological target: T1, A3A(E72A) (Homo sapiens, UniProt P31941 1-199, E72A); test: fluorescence anisotropy; pH 6.0; 50 mM MES pH 6.0, 100 mM NaCl, 0.5 mM TCEP, room temperature overnight, 10 nM TAMRA-oligo; competition with 300 nM A3A(E72A); pH series: acetate 4.0-5.0, MES 5.5-6.5, HEPES 7.0-8.0, Tris 8.5-9.0; settings: protein: recombinant; tags: His6-SUMO removed by Ulp1 (untagged); label: 5' TAMRA; hairpin
[2] = biological target: T1, A3A(E72A); test: fluorescence anisotropy; pH 5.5; 50 mM MES pH 6.0, 100 mM NaCl, 0.5 mM TCEP, room temperature overnight, 10 nM TAMRA-oligo; competition with 300 nM A3A(E72A); pH series: acetate 4.0-5.0, MES 5.5-6.5, HEPES 7.0-8.0, Tris 8.5-9.0; settings: protein: recombinant; tags: His6-SUMO removed by Ulp1 (untagged); label: 5' TAMRA

T1 sequence (P31941 whole entry E72A): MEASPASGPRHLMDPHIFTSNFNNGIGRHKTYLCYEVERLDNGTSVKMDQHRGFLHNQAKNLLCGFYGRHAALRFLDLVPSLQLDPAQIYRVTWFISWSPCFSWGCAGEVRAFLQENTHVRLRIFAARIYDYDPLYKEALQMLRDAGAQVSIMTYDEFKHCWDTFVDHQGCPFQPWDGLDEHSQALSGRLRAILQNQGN

Binder | Kd [1] | Kd [2]
GCCATCAAAAGATGGG (structured_DNA) [Hairpin-AAA] | 676 ± 399 nM | –
AAAATTCAAAAAA (ssDNA) [Poly A-TTC (pH series, 4A-TTC-6A)] | – | 68 ± 3 nM

From PMC5951847, “Substrate sequence selectivity of APOBEC3A implicates intra-DNA interactions”
